The experiment has as its target mouse Mc4r (melanocortin 4 receptor), untagged expression construct (mouse) (UniProt P56450). In words: cell-based or functional assay.

A value given as a limit tells only on which side of the number the result lay.

The record followed here is patent US20160143256A1.

UniProt P56450, sequence (P56450 whole entry): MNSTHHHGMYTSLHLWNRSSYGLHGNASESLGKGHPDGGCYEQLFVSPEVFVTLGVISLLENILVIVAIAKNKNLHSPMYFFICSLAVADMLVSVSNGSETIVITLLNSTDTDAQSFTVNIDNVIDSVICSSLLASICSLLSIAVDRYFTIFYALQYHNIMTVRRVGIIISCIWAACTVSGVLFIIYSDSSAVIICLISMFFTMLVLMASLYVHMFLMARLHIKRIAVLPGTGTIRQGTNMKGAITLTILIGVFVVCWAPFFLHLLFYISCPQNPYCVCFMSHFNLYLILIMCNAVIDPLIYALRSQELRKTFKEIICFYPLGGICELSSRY

For the substance “Mrap2delE3 (mouse Mrap2 with exon 3 deleted) (from UniProt D3Z1Q2 1-55)”, the αMSH-induced increase above basal PKA activity (CRELuc, CHO cells co-transfected with Mc4r and Mrap2delE3) is under 2 fold.

“mouse Mrap2 (melanocortin 2 receptor accessory protein 2), untagged expression construct (from UniProt D3Z1Q2 1-207)” returned a αMSH-induced increase above basal PKA activity (CRELuc, CHO cells co-transfected with Mc4r and Mrap2, 0-10 nM αMSH) of 5 fold. “α-melanocyte stimulating hormone (from UniProt P01189 138-150) (peptide)” had a αMSH-induced increase above basal PKA activity (CRELuc, CHO cells transfected with Mc4r alone) of under 2 fold.
